# Experiment: soluble on expression in E. coli; label from the status in PepcDB or PDB records
row,Sequence,soluble on expression in E. coli
1,MSLGISNAIDNSVRARVLGIKTEFRNFNTGRTFFLPQHVALLGQGNTAATYELTPFRATSAAQVGQRFGFGSPLHLAALQLLPDNNDGLRSIPLTIFPMGDNDAGVAAEGVLDLSGTASATATVRVRIGSQRSSLVTIPTGTTAEQAAALLVAGIQGNPFMPMTAAVDGTNANEVDVTAKWQGLSGNDLVVSIEGSIPGITVAITQPTGGAADPEVADTLALFGENVWYTQIVSCFNTANTDALDAFETFGEGRWDPILRRPLAVFTGTNETDPNTLAAIGDARRAQRTNLVTPVPGAQNLPCEIAAAWVARVARSANNDPASDFARLTLPGLTPGTDAQQWTHTQRDLLVKAGISTSIVRDGVAEISDTVTTYHPTGEVNPGYLFYKDTVKASNVLFNLDLIFNTREWDGAPLIPDDQPTTNARAKRPKDAVAVLSVLANNLGLDAIISDVPFTLENIRASINDQNPNRLDIIFPAKNSGNANIISADYFFGFFLGTEGHHHHHH,soluble
2,MSLGNPHMPLLLALSKGFVEPVYRAAFLASAASSGVLAALAVRPCDLESLAERLDIDDEDLPRLKEWLDMGIRLGDLGKREGCYKLRSLPAKALAQPGNDAIAAALEEVLRFHVPALLNGPRMLREGRRFSLDDQDGLVIARSTRVIQPLVEEAIARTLDRNAPVRLLEVGCGSGTYVRYAAELNPRLSALAVDLQQDVADSAAANMAEWGLTDRVETRQADLRTLDAQPQFDLVTLHNNIYYFPEAERVEALRRAHDLLAPGGRLLLTTSCKGGNVGLEALNLWFTYADFGGPLPQADALADQLRQAGFDDVEATRIVPGEQFHAFTGTSKRVAHAEGHHHHHH,not soluble
3,MSLGNSYAGQLKTTRFEEVLHNSIEASLRSNNLVPRPIFSQLYLEAEQQLAALEGGSRVDNEEEEEEGEGGLETNGPPNPFQLHPLPEGCCTTDGFCQAGKDLRLVSISNEPMDVPAGFLLVGVKSPSLPDHLLVCAVDKRFLPDDNGHNALLGFSGNCVGCGKKGFCYFTEFSNHINLKLTTQPKKQKHLKYYLVRNAQGTLTKGPLICWKGSEFRSRQIPASTCSSSLFPALESTAAFPSEPVPGTNPSILMGAQQAGPASDHPSLNAAMGPAVFNGKDSPKCQQLAKNNLLALPRPSALGILSNSGPPKKRHKGWSPESPSAPDGGCPQGGGNRAKYESAGMSCVPQVGLVGPASVTFPVVASGEPVSVPDNLLKICKAKPVIFKVFVNGATQMVALGPAEEGHHHHHH,not soluble
4,MSLGPILVASEDYGRRVELSAMLRGFGYRVIEAENGLRTIDLLHRRKNIVLALLDVVMSDLSVGDLIKMIRVAGVAVPIVVIAQQENQELLQKALTAGAIDYWIHPVTLLRLRVTLDTLALISALEREVHYIRRKKENHLRFSDLSIKSRAMQIVLEQSKRAASSLQNLLIEGEVGTGRETLARIIHHEGLLSEGDFIRFQCLAIVDPEEENHQWFKEFIPLVSSLEKGTLCLCDVDRLEPIQQKRFMHYLKEREKATKDKVFPFRIIAISTSRLSDLVKEGFFLHSLFEQFSQLSISVPALRELRDDFPDLTQRLIDRIITETGRSHVHGLAGSALSLLMQYDWPGNRNGLENFLFRAILLSDGPLLTVRDFPQLMGNSLMNVPKIIESNMQEDHEQESVKFLDVDGHVRTFAEMERDIIEKAFKHYKGHMSEIARRLRIGRSTLYRKIEGLRAISSQEGHHHHHH,soluble
5,MSLGSTQLQLHGLLSNISSKEGTYAKLGGLYTQSLARLVAKCEDLFMGGQKKELHFNENNWSLFKLTCNKPCCDSGDAIYYCATCSEDPGSTYAVKICKAPEPKTVSYCSPSVPVHFNIQQDCGHFVASVPSSMLSSPDAPKDPVPALPTHPPAQEQDCVVVITREVPHQTASDFVRDSAASHQAEPEAYERRVCFLLLQLCNGLEHLKEHGIIHRDLCLENLLLVHCTLQAGPREKQLPRLIISNFLKAKQKPGGTPNLQQKKSQARLAPEIVSASQYRKFDEFQTGILIYELLHQPNPFEVRAQLRERDYRQEDLPPLPALSLYSPGLQQLAHLLLEADPIKRIRIGEAKRVLQCLLWGPRRELVQQPGTSEEALCGTLHNWIDMKRALMMMKFAEKAVDRREGHHHHHH,not soluble
6,MSLGSTQLQLHGLLSNISSKEGTYAKLGGLYTQSLARLVAKCEDLFMGGQKKELHFNENNWSLFKLTCNKPCCDSGDAIYYCATCSEDPGSTYAVKICKAPEPKTVSYCSPSVPVHFNIQQDCGHFVASVPSSMLSSPDAPKDPVPALPTHPPAQEQDCVVVITREVPHQTASDFVRDSAASHQAEPEAYERRVCFLLLQLCNGLEHLKEHGIIHRDLCLENLLLVHCTLQAGPREKQLPRLIISNFLKAKQKPGGTPNLQQKKSQARLAPEIVSASQYRKFDEFQTGILIYELLHQPNPFEVRAQLRERDYRQEDLPPLPALSLYSPGLQQLAHLLLEADPIKRIRIGEAKRVLQCLLWGPRRELVQQPGTSEEALCGTLHNWIDMKRALMMMKFAEKAVDRRRGVELEDWLCCQYLASAEPGALLQSLKLLQEGHHHHHH,soluble
7,MSLGSVKIVSDLPLQGANRAQTISMVNAIRLAIDQRGGKVAGLKIEYESLDDATAQSGQWDEGKCAENAQQAAQDEEIVGWIGPFNSGCAAVEIPILNEAGLVMISPANTYVGLTKEGGEPDEPDKYYPTGQRNYTRVIPADDKQGRLAAVLMREEGVRTVFILDDRETYGKGLADQVQKSAEEFGIEVVGRQGIDGSASNYRGLMNRVREANPDAIYFGGIIENNAGQLVRDKVGAGMPNDEVLFIGPDGIFVDTFIEQAGDAAEGAYVTFGGIPPERLGERGQRFIEEYNAKYPDDPIQAYTAYAYEAANVLLDAIERAQKADGEVNRENVLREVFATENYKGVLGTWSFDENGDTTLTKLSVQRVQNGEFKLDRVLDVSREGHHHHHH,soluble
8,MSLHGELDKIYETLALAERRGPGPVDLLLCCGDFQAVRNEADLRCMAVPPKYRHMQTFYRYYSGEKKAPVLTLFIGGNHEASNHLQELPYGGWVAPNIYYLGLAGVVKYRGVRIGGISGIFKSHDYRKGHFECPPYNSSTIRSIYHVRNIEVYKLKQLKQPIDIFLSHDWPRSIYHYGNKKQLLKTKSFFRQEVENNTLGSPAASELLEHLKPTYWFSAHLHVKFAALMQHQAKDKGQTARATKFLALDKCLPHRDFLQILEIEHDPSAPDYLEYDIEWLTILRATDDLINVTGRLWNMPENNGLHARWDYSATEEGMKEVLEKLNHDLKVPCNFSVTAACYDPSKPQTEGHHHHHH,soluble
9,MSLHIHILGICGTFMGGVAMLARQLGHKVTGSDANVYPPMSTMLEAQGIEIIEGFDPVQLEPKPDLVVIGNAMSRGNPCVEYVLNHNLRYTSGPQWLQDFLLHDRWVIAVSGTHGKTTTSSMIAWVLEHCGYQPGFLVGGVLGNFGISARLGESMFFVVEADEYDSAFFDKRSKFVHYHPRTLVMNNLEFDHADIFDNLEAIKRQFHHLVRTVPGNGRILAPKQDEALADVLQRGCWSETEFSGEQGEWQAEKITADGSQFHVLLKGERVGQVNWSLVGDHNVSNALMAIAAARHVGVAPELACEALGLFVNTKRRLELKGEINGVTVYDDFAHHPTAIELTLGGLRNKVGDKKIIAVLEPRSATMKLGVHKETLAASLHSADSVYLYQPSNIPWSVEEVAKQCQQPAQVSANMDEFVAMIAKEAQAGDQILVMSNGGFEGIHGKLLAALQQKEGHHHHHH,soluble
10,MSLHRSEKMKEIKEAYQQCGQIVGEYAPACFKALSYLPLKQRQASWAVLSFCHTAASADEKVLPAFEAKADHVYQRTNNGKQHLWKAFDHAYRTFTLESEPFREFIAAQKEDAKPYDDLDELLMYAYRTGGAAGLMLLPILTRRKQDQLKQAAVSLGLAIQLVRFLSDLGTDQQKNRIPRQVMQQFGYTEADLQKGTVNKAFTMTWEYIAFEAEAYLEECQDALPLFPQYSQKTVKAALHLHRAVLEKIRAKQHDVFQYHFALTETEVKQILSDIEGHHHHHH,soluble
11,MSLIDLKPKVERVDAIQSFVSQETPIVTIHDSDGASGTGYSYTIGTGGPSVMALLEQTLVPALIGKDADRIDGIWRDLLFLTHATAVGPITSLALAAIDIALWDLRCKKMGLPLWKAAGGSRDRIPLYSTEGGWLHLETAALVEDALAMKEQGFRGSKIKIGRAHLSEDRARLGAIRAAVGDSYEIMTDANQGFTLSEAIRRAKVLEEFGIGWFEEPLPADDVLSHQELSRRTHVPIAVGESMYSLSQFKDYLQVGAAQIVQVDVARIGGITPWLKVAHLAEAHSVMVCPHFLMELHLPLVCAVPNAKWLEYIPQLDGVTRQNMQISNGDAVPSDEPGLGIDWDWDAITAQEIGARSIGGAEGHHHHHH,not soluble
